The target in data set [1] is Human Tau K18 2×IN (V308I/Y309N) (human) (UniProt P10636). In words: cell-based or functional assay.
The target in data set [2] is Human Tau K18 2×VY (I278V/N279Y) (human) (UniProt P10636). The data set can be described thus: cell-based or functional assay.
In data set [3] the target is Human Tau40 (residues 1-441) with a C-terminal His-tag (human, UniProt P10636 1-757). In words: cell-based or functional assay.
Data set [4] deals with the molecule itself. In words: MicroED structure of nanocrystals; self-association. The method, then:
(§1) Nanocrystals of […] (SEQ ID NO: 12) synthetic peptide (purchased from Genscript) were prepared from 30 mg/ml stocks dissolved in water by the addition of 45 mM arachidonic acid to concentrated peptide. Subsequently crystals were grown in batch at 37° C. by the addition of 10 μl of precipitant (32% PEG10K in 100 mM phosphate citrate, pH 4.2) to 5 μl of protein. After 18 hours nanocrystals were resuspended by pipetting, spun down in an epitube and the resulting crystalline pellet was washed three times with water. Nanocrystals of VQIINK (SEQ ID NO: 11) peptide (purchased from Genscript) were grown by vapor diffusion from peptide at 15 mg/ml as a 1:2 drop ratio (protein:reservoir) from 0.29 M LiNO3, 24% (w/v) PEG 3350 at 18° C. and similarly harvested for data collection.
(§2) MicroED data were collected by spotting 2-3 μl of crystals onto TEM grids with carbon film support and plunge frozen in liquid ethane using a Vitrobot Mark IV (FEI). Diffraction images were collected on an FEI Tecnai F20 TEM at 200 kV as a continuous rotation tilt series at a rate of 0.2° per second with 2 second exposures per image. Diffraction data from several crystals were indexed, merged and scaled with XDS and XSCALE.²⁷ Molecular replacement was performed with Phaser²⁸ using a polyalanine search model composed of an ideal β-strand. The structure of VQIINK (SEQ ID NO: 11) was solved using a truncated version of […] […]

Data set [5] deals with the molecule itself. In words: MicroED structure of fibril nanocrystals; self-association. Here is the method:
as §1, §2

Human Tau40 (residues 1-441) with a C-terminal His-tag, sequence (P10636 other isoform, or with tags, fused parts or gaps): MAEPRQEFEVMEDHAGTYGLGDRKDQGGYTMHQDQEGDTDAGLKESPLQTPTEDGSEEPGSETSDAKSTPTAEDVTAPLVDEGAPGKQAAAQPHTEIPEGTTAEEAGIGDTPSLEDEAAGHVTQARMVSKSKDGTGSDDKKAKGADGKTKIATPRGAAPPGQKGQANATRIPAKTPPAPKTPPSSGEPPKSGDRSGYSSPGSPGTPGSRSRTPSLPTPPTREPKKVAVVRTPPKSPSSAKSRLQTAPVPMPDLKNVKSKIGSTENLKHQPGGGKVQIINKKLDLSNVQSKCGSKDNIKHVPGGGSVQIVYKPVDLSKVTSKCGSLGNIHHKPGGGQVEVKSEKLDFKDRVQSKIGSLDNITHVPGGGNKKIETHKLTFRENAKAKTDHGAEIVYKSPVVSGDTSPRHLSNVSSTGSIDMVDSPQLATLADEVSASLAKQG

Turning to “Human Tau K18 2×IN (V308I/Y309N) (from UniProt P10636 561-689)”, in data set [1], the ThT fluorescence, time to half maximum of fibril formation (50 µM, heparin, shaking, 37° C.) amounted to 70 min.
In data set [2], “Human Tau K18 2×VY (I278V/N279Y) (from UniProt P10636 561-689)” showed a ThT fluorescence, time to half maximum of fibril formation (50 µM, heparin, shaking, 37° C.) of 220 min.
In the case of DVWMINKKRK [W-MINK Phase 2 inhibitor peptide], the “IC50 of inhibition of seeding by pre-formed Tau40 fibers in biosensor cells” value (shortened to “IC50 of inhibition of seeding”) in data set [3] is 9 µM.
For VQIINK [VQIINK peptide (six residue Tau segment)], the binding result in data set [4] was “binds”.

B1: KVQIINKKLD synthetic peptide (ten residue Tau segment) (peptide)
peptide: KVQIINKKLD
notes: The peptide corresponds to Tau40 residues 274-283; also called ten residue VQIINK segment
Consider B1, for which the binding result in data set [5] was “binds”.
For the molecule DVQMINKKRK [MINK inhibitor peptide], the “IC50 of inhibition of seeding” value in data set [3] turned out to be 22 µM.
Regarding DVQWINKKRK [WINK inhibitor peptide], the “IC50 of inhibition of seeding” value in data set [3] was 25 µM.
